Test results taken from paper PMC5829272.

What was measured:
cultured NSCs = details: glycan lost; control: wild type NSCs
RNA sequencing of NSCs = details: glycan lost; control: wild type NSCs
cultured NSCs in vitro = details: glycan lost; control: wild type NSCs
[1] = qPCR, Western blot, immunofluorescence; details: glycan lost; control: wild type
[2] = GFAP/lectin immunofluorescence in cortex; details: glycan lost; control: wild type mice
[3] = DMP1 immunofluorescence intensity in brain; details: glycan lost; control: wild type mice
[4] = RNA sequencing of primary astrocyte cultures; details: glycan lost; control: wild type astrocytes
[5] = immunofluorescence, retrosplenial granular cortex; details: glycan lost; control: wild type mice
[6] = spontaneous differentiation after EGF/bFGF withdrawal; details: glycan lost; control: wild type NSCs
[7] = intraperitoneal Evans blue, leakage area in brain sections; details: glycan lost; control: wild type mice
[8] = transmission electron microscopy, retrosplenial granular cortex; details: glycan lost; control: wild type mice

B1: Dentin matrix protein 1 (DMP1): S89G-DMP1 (protein)
parent chain: MKTVILLVFLWGLSCALPVARYHNTESESSEERTGDLAGSPPPPTNSESSEESQASPEGQANSDHTDSSESGEELGYDRGQYRPAGGLSKSTGTGADKEDDEDDSGDDTFGDEDNDLGPEEGQWGGPSKLDSDEDSTDTTQSSEDSTSQENSAQDTPSDSKDHDSEDEADSRPEAGDSTQDSESEEQRVGGGSEGESSHGDGSEFDDEGMQSDDPESTRSDRGHARMSSAGIRSEESKGDHEPTSTQDSDDSQSVEFSSRKSFRRSHVSEEDYRGELTDSNSRETQSDSTEDTASKEESRSESQEDTAESQSQEDSPEGQDPSSESSEEAGEPSQESSSESQEGVTSESRGDNPDNTSQAGDQEDSESSEEDSLNTFSSSESQSTEEQADSESNESLSLSEESQESAQDGDSSSQEGLQSQSASTESRSQESQSEQDSRSEEDSDSQDSSRSKEESNSTGSASSSEEDIRPKNMEADSRKLIVDAYHNKPIGDQDDNDCQDGY
With B1 the “other: neural stem cell apoptosis” value (cultured NSCs) was “no change”, the “other: neural stem cell transcriptome” value (RNA sequencing of NSCs) was “changes” and the “other: neural stem cell proliferation” value (cultured NSCs in vitro) was “increases”. For the same protein, the “other: AQP4 expression in astrocytes and brain” value [1] was “decreases”, the “other: astrocyte end feet coverage of blood vessels” value [2] was “decreases” and the expression_or_secretion [3] was “no change”. The “other: astrocyte transcriptome” value [4] was “changes”, the “other: laminin and ZO1 expression at vasculature” value [5] was “decreases” and the “other: neural stem cell differentiation” value [6] was “no change”. For the same protein, the “other: blood-brain barrier integrity” value [7] was “decreases” and the “other: astrocyte cell-cell adhesion” value [8] was “decreases”.
